Results: publication PMC3907796

Target: DAO-6H (recombinant D-amino acid oxidase with C-terminal (His)6) (UniProt P14920)
Sequence (P14920 whole entry): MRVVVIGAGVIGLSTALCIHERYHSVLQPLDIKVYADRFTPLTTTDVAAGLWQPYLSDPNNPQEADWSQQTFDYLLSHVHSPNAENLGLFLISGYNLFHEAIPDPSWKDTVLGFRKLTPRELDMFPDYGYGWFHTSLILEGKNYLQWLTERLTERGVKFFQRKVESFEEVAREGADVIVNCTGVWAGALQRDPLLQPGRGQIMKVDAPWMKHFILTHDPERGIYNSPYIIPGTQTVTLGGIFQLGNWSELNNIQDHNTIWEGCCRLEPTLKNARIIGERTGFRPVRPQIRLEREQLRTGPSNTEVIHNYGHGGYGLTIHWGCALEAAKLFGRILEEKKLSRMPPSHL

- initial velocity (V0) of DAO activity (400 nM DAO-6H, 40 mM D-alanine, 25 °C) with 0, 1, 3, 10 μM G72; V0 at 10 μM, fold of DAO alone in parentheses (mol hydrogen peroxide produced/min/g DAO): 8.06
B1: G72-6H (recombinant full-length G72 with C-terminal (His)6, refolded) (natural protein)
chain: MLEKLMGADSLQLFRSRYTLGKIYFIGFQRSILLSKSENSLNSIAKETEEGRETVTRKEGWKRRHEDGYLEMAQRHLQRSLCPWVSYLPQPYAELEEVSSHVGKVFMARNYEFLAYEASKDRRQPLERMWTCNYNQQKDQSCNHKEITSTKAE
